Values of other authors in article PMC4243993.

Target: His105 (UniProt position 105, PPVKIHCSILA)

Substance: Iron-sulfur cluster assembly scaffold protein IscU (Escherichia coli)
- pKa: around 9
